We go through six molecules from article PMC4245953, “Hug1 is an intrinsically disordered protein that inhibits ribonucleotide reductase activity by directly binding Rnr2 subunit” (Nucleic Acids Research, 2014).

One may read the Kd as the constant that tells how readily two partners part at equilibrium.

The target in assay [1] is Rnr2-Rnr4 (Saccharomyces cerevisiae) (UniProt P09938). The note with it: cited from earlier work.
Assay [2] has as its target RNR R2 (Escherichia coli) (UniProt P69924). The settings on record: cited from earlier work.
The next assay deals with RNR R2 (Mus musculus) (UniProt P11157). The note with it: cited from earlier work.
Chain of RNR R2 (Mus musculus) (P11157 whole entry): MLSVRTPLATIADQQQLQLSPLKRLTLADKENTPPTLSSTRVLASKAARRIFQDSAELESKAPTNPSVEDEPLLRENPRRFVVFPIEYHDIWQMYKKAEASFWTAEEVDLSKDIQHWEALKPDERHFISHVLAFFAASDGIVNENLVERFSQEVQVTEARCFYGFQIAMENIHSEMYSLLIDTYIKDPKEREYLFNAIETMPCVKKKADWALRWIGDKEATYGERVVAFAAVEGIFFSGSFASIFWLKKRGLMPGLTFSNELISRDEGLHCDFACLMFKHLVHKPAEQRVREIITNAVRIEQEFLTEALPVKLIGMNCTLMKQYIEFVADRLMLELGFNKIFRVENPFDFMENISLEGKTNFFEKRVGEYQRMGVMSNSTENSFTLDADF
The target in assay [3] is Rnr1 (Saccharomyces cerevisiae) (UniProt P21524). The settings on record: cited from earlier work.
Chain of Rnr1 (Saccharomyces cerevisiae) (P21524 whole entry): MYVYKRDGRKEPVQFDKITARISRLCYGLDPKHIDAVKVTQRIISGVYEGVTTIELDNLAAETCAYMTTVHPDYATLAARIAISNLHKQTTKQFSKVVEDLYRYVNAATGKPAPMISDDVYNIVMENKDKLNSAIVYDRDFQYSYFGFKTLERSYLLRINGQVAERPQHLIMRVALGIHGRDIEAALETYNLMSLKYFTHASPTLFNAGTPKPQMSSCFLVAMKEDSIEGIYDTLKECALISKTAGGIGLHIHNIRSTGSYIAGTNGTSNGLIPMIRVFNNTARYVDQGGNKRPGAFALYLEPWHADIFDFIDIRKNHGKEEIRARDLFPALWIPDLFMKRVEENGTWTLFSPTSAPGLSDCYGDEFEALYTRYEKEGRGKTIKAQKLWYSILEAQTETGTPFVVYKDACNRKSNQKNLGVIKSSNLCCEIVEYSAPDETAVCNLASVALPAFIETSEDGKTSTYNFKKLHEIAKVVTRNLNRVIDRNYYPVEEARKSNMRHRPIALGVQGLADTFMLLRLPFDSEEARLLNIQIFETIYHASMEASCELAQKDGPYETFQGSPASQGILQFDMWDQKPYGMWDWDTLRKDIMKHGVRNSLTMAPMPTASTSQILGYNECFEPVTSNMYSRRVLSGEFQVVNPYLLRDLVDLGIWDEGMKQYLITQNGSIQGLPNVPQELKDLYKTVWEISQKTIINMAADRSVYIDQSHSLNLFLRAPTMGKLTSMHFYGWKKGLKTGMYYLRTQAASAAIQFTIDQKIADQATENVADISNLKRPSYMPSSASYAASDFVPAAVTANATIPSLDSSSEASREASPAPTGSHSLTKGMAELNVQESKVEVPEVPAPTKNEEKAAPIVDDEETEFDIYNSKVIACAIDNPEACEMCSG
Assay [4] addresses Cdc22 (R1) (Schizosaccharomyces pombe) (UniProt P36602). The note with it: cited from earlier work.
For a further assay, the target named is T1, (His)6-Rnr2-Rnr4 complex (S. cerevisiae, UniProt P09938 1-399; P49723 1-345).
T1 construct: Rnr2, S. cerevisiae; Rnr4, S. cerevisiae; also called Rnr2/4; source: E. coli BL21 (DE3) gold, co-expressed; purified (Ni-NTA, anion exchange) for NMR; 'purified' by the text or 'soluble extracts' by the legend in the pull-down
T1 sequence (looked up) 1: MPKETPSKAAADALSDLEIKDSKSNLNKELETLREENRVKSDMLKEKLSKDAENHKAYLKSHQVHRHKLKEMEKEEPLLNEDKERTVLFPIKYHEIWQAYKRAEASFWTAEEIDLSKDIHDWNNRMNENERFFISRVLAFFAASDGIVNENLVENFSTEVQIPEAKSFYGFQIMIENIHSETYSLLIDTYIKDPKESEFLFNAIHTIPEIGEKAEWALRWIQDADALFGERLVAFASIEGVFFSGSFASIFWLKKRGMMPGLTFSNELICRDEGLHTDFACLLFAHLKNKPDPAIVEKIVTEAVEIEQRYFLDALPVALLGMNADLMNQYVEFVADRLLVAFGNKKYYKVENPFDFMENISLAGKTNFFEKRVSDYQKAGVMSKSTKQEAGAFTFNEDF
T1 sequence (looked up) 2: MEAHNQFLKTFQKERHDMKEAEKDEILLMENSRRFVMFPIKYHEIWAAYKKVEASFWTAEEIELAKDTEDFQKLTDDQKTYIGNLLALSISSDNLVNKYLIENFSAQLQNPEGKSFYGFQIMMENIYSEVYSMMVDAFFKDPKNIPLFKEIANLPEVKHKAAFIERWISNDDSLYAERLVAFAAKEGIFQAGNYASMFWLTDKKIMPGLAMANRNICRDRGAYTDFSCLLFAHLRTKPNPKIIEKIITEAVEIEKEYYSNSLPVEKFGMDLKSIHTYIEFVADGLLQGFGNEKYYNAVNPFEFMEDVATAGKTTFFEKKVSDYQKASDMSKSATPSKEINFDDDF
Briefly: NMR titration; 1H-15N HSQC of 15N-Hug1 with increasing unlabeled (His)6-Rnr2-Rnr4; Tris-d11 10 mM pH 7.5; 22°C (50 uM Hug1, ratios 1:0.125 to 1:1.6, global fit of four peaks, 1:1 model) and 9°C (16.4 uM Hug1, ratio 1:2). The note with it: both partners purified.

Chain of Cdc22 (R1) (Schizosaccharomyces pombe) (P36602 whole entry): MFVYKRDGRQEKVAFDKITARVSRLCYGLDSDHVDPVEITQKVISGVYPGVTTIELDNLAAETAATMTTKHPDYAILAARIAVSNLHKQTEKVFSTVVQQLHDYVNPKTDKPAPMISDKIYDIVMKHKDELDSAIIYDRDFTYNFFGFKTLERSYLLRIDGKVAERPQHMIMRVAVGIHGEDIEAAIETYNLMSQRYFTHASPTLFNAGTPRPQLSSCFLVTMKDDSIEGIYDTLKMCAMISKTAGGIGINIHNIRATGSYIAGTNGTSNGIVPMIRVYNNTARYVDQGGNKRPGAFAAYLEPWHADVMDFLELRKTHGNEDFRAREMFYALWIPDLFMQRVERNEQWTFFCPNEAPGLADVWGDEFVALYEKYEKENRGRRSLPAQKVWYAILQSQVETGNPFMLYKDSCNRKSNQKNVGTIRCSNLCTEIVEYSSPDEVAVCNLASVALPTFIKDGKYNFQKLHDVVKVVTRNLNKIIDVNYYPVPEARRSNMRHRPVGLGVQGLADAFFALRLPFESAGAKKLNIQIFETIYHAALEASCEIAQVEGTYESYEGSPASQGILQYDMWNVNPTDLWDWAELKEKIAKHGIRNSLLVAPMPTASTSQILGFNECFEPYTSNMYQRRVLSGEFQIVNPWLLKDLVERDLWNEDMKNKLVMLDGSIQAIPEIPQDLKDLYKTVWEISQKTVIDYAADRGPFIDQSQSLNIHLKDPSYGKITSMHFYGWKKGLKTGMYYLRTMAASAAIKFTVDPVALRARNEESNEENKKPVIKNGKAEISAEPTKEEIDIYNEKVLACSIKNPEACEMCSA
Chain of RNR R2 (Escherichia coli) (P69924 2-376): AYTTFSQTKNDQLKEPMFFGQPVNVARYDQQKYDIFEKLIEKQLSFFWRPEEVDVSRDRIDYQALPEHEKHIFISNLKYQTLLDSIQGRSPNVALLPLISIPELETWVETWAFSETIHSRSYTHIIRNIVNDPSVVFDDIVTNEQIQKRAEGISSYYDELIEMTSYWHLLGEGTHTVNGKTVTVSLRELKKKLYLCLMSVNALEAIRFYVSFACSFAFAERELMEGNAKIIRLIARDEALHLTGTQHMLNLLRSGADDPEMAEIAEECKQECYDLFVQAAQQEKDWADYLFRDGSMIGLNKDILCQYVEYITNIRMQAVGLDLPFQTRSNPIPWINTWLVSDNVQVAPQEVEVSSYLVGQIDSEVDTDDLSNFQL

On to Dif1 (from UniProt O13577), for which the Kd in assay [1] was 600 nM.

On to RNR R1 (from UniProt P00452), for which the dissociation constant (Kd) in assay [2] was 100 nM.

Consider RNR R1 (from UniProt P07742), for which the Kd with RNR R2 (Mus musculus) is 100 nM.

Sml1 (from UniProt Q04964): in assay [3], the Kd was 400 nM.

Consider Spd1 (from UniProt Q10585), for which the equilibrium dissociation constant (Kd) in assay [4] was 2400 nM.

B1: Recombinant Hug1 (tags cleaved), 15N-labeled (natural protein, S. cerevisiae, UniProt Q6Q5K6 1-68, looked up)
chain: MTMDQGLNPKQFFLDDVVLQDTLCSMSNRVNKSVKTGYLFPKDHVPSANIIAVERRGGLSDIGKNTSN
modifications: also: uniformly 15N-labeled
notes: Hug1, S. cerevisiae, released from (His)6-GST-TEV site-Hug1 by TEV protease; calculated mass 7.5 kDa; protein of 68 residues; also called 15N-Hug1; purified recombinant Hug1; source: E. coli BL21 (DE3) gold, purified (Glutathione-agarose, TEV cleavage, Ni-NTA flow-through); not shown: His6, N-terminal, cleaved; GST, N-terminal, cleaved
Regarding B1, the Kd with (His)6-Rnr2-Rnr4 complex turned out to be 1600 ± 600 nM.
